These results are taken from publication PMC4691852 (Molecular cell, 2013).

Read-outs that look alike come from different tables or passages of the source.

Series [1] deals with the molecule itself. The series is described as follows: crystal structure.
Series [2] deals with the molecule itself. Description: crystal structure. The source holds these as a separate data set.
For series [3], the target named is T1, MazF (Bacillus subtilis, UniProt P96622 1-116).
T1 sequence: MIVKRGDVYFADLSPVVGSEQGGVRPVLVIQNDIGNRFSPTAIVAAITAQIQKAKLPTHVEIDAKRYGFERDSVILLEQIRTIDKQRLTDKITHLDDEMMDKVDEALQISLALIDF
Description: ITC. (In ITC the heat of successive injections is recorded.)

B1: Bacillus subtilis MazF (toxin, mRNA interferase), expressed alone from pET-SUMO (enzyme)
chain: T1 sequence
For orientation: stoichiometry N means a count of units in the complex or per binding partner. As for B1, in series [1], the “stoichiometry N” value turned out to be 2.

B2: Bacillus subtilis MazF coexpressed with MazE from modified pRSFDuet-1 (enzyme)
chain: T1 sequence
modifications: selenomethionine-labelled (for the crystals)
For the molecule B2, the “stoichiometry N” value in series [2] amounted to 2.

B3: Bacillus subtilis MazE (antitoxin) coexpressed with MazF from modified pRSFDuet-1 (natural protein)
chain: MSESSARTEMKISLPENLVAELDGVAMREKRSRNELISQAVRAYVSERTTRHNRDLMRRGYMEMAKINLNISSEAHFAECEAETTVERLVSGG
modifications: selenomethionine-labelled (for the crystals)
As for B3, the “stoichiometry N” value in series [2] was found to be 2.

B4: uncleavable 9-mer RNA UUdUACAUAA (ssRNA)
RNA: UUUACAUAA
modifications: 2'-deoxyuridine at position 3 (other residues ribo)
As a reminder, the Kd is the free concentration of one partner at which half of the binding sites on the other are occupied at equilibrium, for simple one-to-one binding. For B4, in series [3], the Kd came to 64 nM.
